The results in this text go back to patent US20250376519A1 (JIANGSU HENGRUI PHARMACEUTICALS, published 2025).

One assay addresses T1, human DLL3 on cells (human, UniProt Q9NYJ7 27-618).
T1 sequence: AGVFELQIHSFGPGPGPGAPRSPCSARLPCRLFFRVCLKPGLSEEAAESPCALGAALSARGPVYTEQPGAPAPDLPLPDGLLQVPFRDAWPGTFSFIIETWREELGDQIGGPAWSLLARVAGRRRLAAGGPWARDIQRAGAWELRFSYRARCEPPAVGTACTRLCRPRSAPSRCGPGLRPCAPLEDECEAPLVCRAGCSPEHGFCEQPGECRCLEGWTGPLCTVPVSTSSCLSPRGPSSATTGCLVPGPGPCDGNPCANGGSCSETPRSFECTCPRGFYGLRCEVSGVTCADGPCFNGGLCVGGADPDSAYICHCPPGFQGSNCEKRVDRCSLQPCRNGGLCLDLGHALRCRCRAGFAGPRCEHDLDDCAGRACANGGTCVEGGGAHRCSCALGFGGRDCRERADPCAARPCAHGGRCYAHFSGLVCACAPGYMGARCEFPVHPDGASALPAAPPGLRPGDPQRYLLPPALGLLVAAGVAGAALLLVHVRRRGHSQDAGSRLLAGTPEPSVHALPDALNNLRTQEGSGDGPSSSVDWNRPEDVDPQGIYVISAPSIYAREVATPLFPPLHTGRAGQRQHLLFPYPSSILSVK
Kind of assay: cell-based or functional assay.

The target of another assay is hTSLP (human, UniProt Q969D9 29-159). Kind of assay: ELISA. For orientation: ELISA stands for enzyme-linked immunosorbent assay.
A further assay has as its target hIL5 (human, UniProt P05113 20-134). Kind of assay: ELISA.

B1: BI-764532 (bispecific antibody, human IgG1, kappa, lambda, L234A L235A)
chain 1: DIQMTQSPSAMSASVGDRVTITCRASQGISNYLVWFQQKPGKAPKRLIYAVSSLYSGVPSRFSGSGSGTEFTLTISSLQPEDFATYYCLQHDSYPYTFGQGTKLEIKRTVAAPSVFIFPPSDEQLKSGTASVVCLLNNFYPREAKVQWKVDNALQSGNSQESVTEQDSKDSTYSLSSTLTLSKADYEKHKVYACEVTHQGLSSPVTKSFNRGECGGGGSEGKSSGSGSESKSTEGKSSGSGSESKSTGGGGSQVQLVQSGAEVKKPGASVKVSCKASGYTFTSYYVHWVRQAPGQGLEWMVIINPGGGTTSYAQKFLGRVTMTRDTSTNTVYMELKSLRSEDTAVYYCARGEAVTGNYFYYGMDVWGQGTTVTVSSASTKGPSVFPLAPSSKSTSGGTAALGCLVKDYFPEPVTVSWNSGALTSGVHTFPAVLQSSGLYSLSSVVTVPSSSLGTQTYICNVNHKPSNTKVDKRVEPKSCDKTHTCPPCPAPEAAGGPSVFLFPPKPKDTLMISRTPEVTCVVVDVSHEDPEVKFNWYVDGVEVHNAKTKPREEQYNSTYRVVSVLTVLHQDWLNGKEYKCKVSNKALPAPIEKTISKAKGQPREPQVYTLPPSREEMTKNQVSLWCLVKGFYPSDIAVEWESNGQPENNYKTTPPVLDSDGSFFLYSKLTVDKSRWQQGNVFSCSVMHEALHNHYTQKSLSLSPG
chain 2: EAVVTQEPSLTVSPGGTVTLTCRSSTGAVTTSNYANWVQEKPGQLPRGLIGGTNKRAPWVPARFSGSLLGGKAALTLSGAQPEDEAEYFCALWYSNLWVFGGGTKLTVLGQPKAAPSVTLFPPSSEELQANKATLVCLISDFYPGAVKVAWKADGSPVNTGVETTTPSKQSNNKYAASSYLSLTPEQWKSHRSYSCQVTHEGSTVEKTVAPAECSGGGGSEGKSSGSGSESKSTEGKSSGSGSESKSTGGGGSEVQLVESGGGLVQPGGSLKLSCAASGFTFNTYAMNWVRQAPGKGLEWVARIRSKYNNYATYYADSVKDRFTISRDDSKNTAYLQMNNLKTEDTAVYYCVRHGNFGNSYVSWFAYWGQGTLVTVSAASTKGPSVFPLAPSSKSTSGGTAALGCLVKDYFPEPVTVSWNSGALTSGVHTFPAVLQSSGLYSLSSVVTVPSSSLGTQTYICNVNHKPSNTKVDKRVEPKSCDKTHTCPPCPAPEAAGGPSVFLFPPKPKDTLMISRTPEVTCVVVDVSHEDPEVKFNWYVDGVEVHNAKTKPREEQYNSTYRVVSVLTVLHQDWLNGKEYKCKVSNKALPAPIEKTISKAKGQPREPQVYTLPPSREEMTKNQVSLSCAVKGFYPSDIAVEWESNGQPENNYKTTPPVLDSDGSFFLVSKLTVDKSRWQQGNVFSCSVMHEALHNRFTQKSLSLSPG
Consider B1, for which, in the assay with human DLL3 on cells, the “IC50, PBMC killing of SHP77/lucG cells” value is 0.0446 nM and the “Imax (%), PBMC killing of SHP77/lucG cells” value worked out at 97%.

B2: HJ-8 (bispecific antibody)
chain 1: not shown
chain 2: DIQMTQSPSSVSASVGDRVTITCRASQDIANYLSWYQQKPGKSPKLLIYGTSNLEVGVPSRFSGSRSGTDFTLTISSLQPEDFATYYCLQDKEFPRTFGGGTKVEIKRTVASSGAPRFLTRPKASVVSVGKDATLSSQIVGNPFPQVSWEKDKQPVTAGVRFRLAQDGDLYRLKILDLQLSDSGQYVSRARNAHGEAFACLGLQVDAEA
chain 3: EVQLVQSGAEVKKPGSSVKVSCKASGYTFSNYLIEWVRQAPGQGLEWIGVIDPGVGDTNYNENFKGRATLTADKSTSTAYIELSSLRSEDTAVYYCAREDNTGTAFDYWGQGTTVTVSSASTKGPSVFPLAPSSKSTSGGTAALGCLVKDYFPEPVTVSWNSGALTSGVHTFPAVLQSSGLYSLSSVVTVPSSSLGTQTYICNVNHKPSNTKVDKKVEPKSCDKTHTCPPCPAPEAAGGPSVFLFPPKPKDTLMISRTPEVTCVVVDVSHEDPEVKFNWYVDGVEVHNAKTKPREEQYNSTYRVVSVLTVLHQDWLNGKEYKCKVSNKALPAPIEKTISKAKGQPREPQVCTLPPSREEMTKNQVSLSCAVKGFYPSDIAVEWESNGQPENNYKTTPPVLDSDGSFFLVSKLTVDKSRWQQGNVFSCSVMHEALHNHYTQKSLSLSPGK
chain 4: SIVMTQTPLSLSVTPGQPASISCKASQSVSSDVTWYLQKPGQSPQLLIYYVSEHYTGVPDRFSGSGYGTDFTLKISRVEAEDVGVYYCQQHHRFPLTFGQGTKLEIKRTVAAPSVFIFPPSDEQLKSGTASVVCLLNNFYPREAKVQWKVDNALQSGNSQESVTEQDSKDSTYSLSSTLTLSKADYEKHKVYACEVTHQGLSSPVTKSFNRGEC
On to B2, for which the EC50 (commonly the midpoint of the concentration-response curve) was determined as 3.33 nM with hTSLP and 18.7 nM with hIL5.

B3: HJ-9 (bispecific antibody)
chain 1: not shown
chain 2: DIQMTQSPSSVSASVGDRVTITCRASQDIANYLSWYQQKPGKSPKLLIYGTSNLEVGVPSRFSGSRSGTDFTLTISSLQPEDFATYYCLQDKEFPRTFGGGTKVEIKRTVASSGAPRFLTCPKASVVSVGKDATLSSQIVGNPFPQVSWEKDKQPVTAGVRFRLAQDGDLYRLKILDLQLSDSGQYVSRARNAHGEAFACLGLQVDAEA
chain 3: EVQLVQSGAEVKKPGSSVKVSCKASGYTFSNYLIEWVRQAPGQGLEWIGVIDPGVGDTNYNENFKGRATLTADKSTSTAYIELSSLRSEDTAVYYCAREDNTGTAFDYWGQGTTVTVSSASTKGPSVFPLAPSSKSTSGGTAALGCLVKDYFPEPVTVSWNSGALTSGVHTFPAVLQSSGLYSLSSVVTVPSSSLGTQTYICNVNHKPSNTKVDKKVEPKSCDKTHTCPPCPAPEAAGGPSVFLFPPKPKDTLMISRTPEVTCVVVDVSHEDPEVKFNWYVDGVEVHNAKTKPREEQYNSTYRVVSVLTVLHQDWLNGKEYKCKVSNKALPAPIEKTISKAKGQPREPQVCTLPPSREEMTKNQVSLSCAVKGFYPSDIAVEWESNGQPENNYKTTPPVLDSDGSFFLVSKLTVDKSRWQQGNVFSCSVMHEALHNHYTQKSLSLSPGK
chain 4: SIVMTQTPLSLSVTPGQPASISCKASQSVSSDVTWYLQKPGQSPQLLIYYVSEHYTGVPDRFSGSGYGTDFTLKISRVEAEDVGVYYCQQHHRFPLTFGQGTKLEIKRTVAAPSVFIFPPSDEQLKSGTASVVCLLNNFYPREAKVQWKVDNALQSGNSQESVTEQDSKDSTYSLSSTLTLSKADYEKHKVYACEVTHQGLSSPVTKSFNRGEC
In the case of B3, the figures for the EC50 with hTSLP and in the assay with hIL5 were 3.18 nM and 10.9 nM, respectively.

B4: HJ-11 (bispecific antibody)
chain 1: not shown
chain 2: DIQMTQSPSSVSASVGDRVTITCRASQDIANYLSWYQQKPGKSPKLLIYGTSNLEVGVPSRFSGSRSGTDFTLTISSLQPEDFATYYCLQDKEFPRTFGGGTKVEIKRTVASSGCPRFLTRPKASVVSVGKDATLSCQIVGNPFPQVSWEKDKQPVTAGVRFRLAQDGDLYRLKILDLQLSDSGQYVCRARNAHGEAFACLGLQVDAEA
chain 3: EVQLVQSGAEVKKPGSSVKVSCKASGYTFSNYLIEWVRQAPGQGLEWIGVIDPGVGDTNYNENFKGRATLTADKSTSTAYIELSSLRSEDTAVYYCAREDNTGTAFDYWGQGTTVTVSSASTKGPSVFPLAPSSKSTSGGTAALGCLVKDYFPEPVTVSWNSGALTSGVHTFPAVLQSSGLYSLSSVVTVPSSSLGTQTYICNVNHKPSNTKVDKKVEPKSCDKTHTCPPCPAPEAAGGPSVFLFPPKPKDTLMISRTPEVTCVVVDVSHEDPEVKFNWYVDGVEVHNAKTKPREEQYNSTYRVVSVLTVLHQDWLNGKEYKCKVSNKALPAPIEKTISKAKGQPREPQVCTLPPSREEMTKNQVSLSCAVKGFYPSDIAVEWESNGQPENNYKTTPPVLDSDGSFFLVSKLTVDKSRWQQGNVFSCSVMHEALHNHYTQKSLSLSPGK
chain 4: SIVMTQTPLSLSVTPGQPASISCKASQSVSSDVTWYLQKPGQSPQLLIYYVSEHYTGVPDRFSGSGYGTDFTLKISRVEAEDVGVYYCQQHHRFPLTFGQGTKLEIKRTVAAPSVFIFPPSDEQLKSGTASVVCLLNNFYPREAKVQWKVDNALQSGNSQESVTEQDSKDSTYSLSSTLTLSKADYEKHKVYACEVTHQGLSSPVTKSFNRGEC
In the case of B4, the EC50 with hTSLP was 3 nM; with hIL5, 9.46 nM.

B5: HJ-10 (bispecific antibody)
chain 1: not shown
chain 2: DIQMTQSPSSVSASVGDRVTITCRASQDIANYLSWYQQKPGKSPKLLIYGTSNLEVGVPSRFSGSRSGTDFTLTISSLQPEDFATYYCLQDKEFPRTFGGGTKVEIKRTVASSGAPRFLTRPKASVVSVGKDATLSCQIVGNPFPQVSWEKDKQPVTAGVRFRLAQDGDLYRLKILDLQLSDSGQYVCRARNAHGEAFACLGLQVDAEA
chain 3: EVQLVQSGAEVKKPGSSVKVSCKASGYTFSNYLIEWVRQAPGQGLEWIGVIDPGVGDTNYNENFKGRATLTADKSTSTAYIELSSLRSEDTAVYYCAREDNTGTAFDYWGQGTTVTVSSASTKGPSVFPLAPSSKSTSGGTAALGCLVKDYFPEPVTVSWNSGALTSGVHTFPAVLQSSGLYSLSSVVTVPSSSLGTQTYICNVNHKPSNTKVDKKVEPKSCDKTHTCPPCPAPEAAGGPSVFLFPPKPKDTLMISRTPEVTCVVVDVSHEDPEVKFNWYVDGVEVHNAKTKPREEQYNSTYRVVSVLTVLHQDWLNGKEYKCKVSNKALPAPIEKTISKAKGQPREPQVCTLPPSREEMTKNQVSLSCAVKGFYPSDIAVEWESNGQPENNYKTTPPVLDSDGSFFLVSKLTVDKSRWQQGNVFSCSVMHEALHNHYTQKSLSLSPGK
chain 4: SIVMTQTPLSLSVTPGQPASISCKASQSVSSDVTWYLQKPGQSPQLLIYYVSEHYTGVPDRFSGSGYGTDFTLKISRVEAEDVGVYYCQQHHRFPLTFGQGTKLEIKRTVAAPSVFIFPPSDEQLKSGTASVVCLLNNFYPREAKVQWKVDNALQSGNSQESVTEQDSKDSTYSLSSTLTLSKADYEKHKVYACEVTHQGLSSPVTKSFNRGEC
B5: the results for the EC50 in the assay with hTSLP and in the assay with hIL5 were 3.17 nM and 20.8 nM, respectively.
